For four substances, binding and Kd results are on record in paper PMC7905540.

Data set [1] deals with T1, XreR1 (Photorhabdus luminescens DJC), ORF:d6b45183.
T1 sequence: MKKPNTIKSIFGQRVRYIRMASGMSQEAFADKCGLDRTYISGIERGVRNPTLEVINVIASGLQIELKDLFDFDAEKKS
Kind of data set: MST. The note with it: SPR (Biacore 3000, SA chip), proteins in dialysis buffer: 50 mM Tris/HCl pH 7.5, 10% glycerol, 500 mM NaCl, 2 mM beta-mercaptoethanol; 25 C; 30 ul/min; 1:1 …. (In SPR one partner is held on a chip, and binding of the other changes the refractive index at the surface.)

In data set [2] the test system is T2, XreR2 (Photorhabdus luminescens DJC), ORF:b2ab5127.
T2 sequence: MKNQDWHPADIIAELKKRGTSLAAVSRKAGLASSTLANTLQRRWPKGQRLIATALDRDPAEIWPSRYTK
Kind of data set: MST. Particulars: SPR (Biacore 3000, SA chip), proteins in dialysis buffer: 50 mM Tris/HCl pH 7.5, 10% glycerol, 500 mM NaCl, 2 mM beta-mercaptoethanol; 25 C; 30 ul/min; 1:1 ….

The subject of data set [3] is T1, XreR1 (Photorhabdus luminescens DJC), ORF:d6b45183. Kind of data set: SPR. The note with it: SPR (Biacore 3000, SA chip), proteins in dialysis buffer: 50 mM Tris/HCl pH 7.5, 10% glycerol, 500 mM NaCl, 2 mM beta-mercaptoethanol; 25 C; 30 ul/min; 1:1 ….
Data set [4] deals with T2, XreR2 (Photorhabdus luminescens DJC), ORF:b2ab5127. Kind of data set: SPR. Particulars: SPR (Biacore 3000, SA chip), proteins in dialysis buffer: 50 mM Tris/HCl pH 7.5, 10% glycerol, 500 mM NaCl, 2 mM beta-mercaptoethanol; 25 C; 30 ul/min; 1:1 ….
Data set [5] deals with XreR1 (Photorhabdus luminescens DJC). Kind of data set: SPR. Particulars: SPR (Biacore 3000, SA chip), proteins in dialysis buffer: 50 mM Tris/HCl pH 7.5, 10% glycerol, 500 mM NaCl, 2 mM beta-mercaptoethanol, 25 C, 30 ul/min, 1:1 ….

“GGGTGCCAGTCTTGATTTTTCATTAATTAATCCTCCGTGTTACGGATAACTTTGATATGAAAAGGTAAGTCGTTACATAGTAGACTATAAGTCACATATGATAACATAACTTACCATAAAAAGTGACTCATAGTCCGTGGTCTGATAAGTAACATCATTCGATACTTATCAG (double strand) [PxreR2]”: the binding entry in data set [1], in data set [2] and in data set [4] was “binds” throughout. The same substance returned a Kd in data set [3] of 0.3 nM.
“GTTTCATAGCACACCTCAGAAACACACTTAAAATGAACATGAGGAAATGGATTGCGAGCAGGAAAAGATAAATGCAAACAGCTATAAGTAATCATTACTCTTACCGAATGATATAAAGTAGATTGGAGCAGCTTATCTCATTGATAAACTACTCCACTTTAATTTACAGCCAC (double strand) [PpTAS]”: the results for the binding entry in data set [2], in data set [3] and in data set [4] were “binds”, “no binding” and “binds”, respectively.
In data set [5] (ka 4.5E+06 1/Ms, kd 2.9E-3 1/s), PxreR1 had a Kd of 0.6 nM.
Regarding PxreR2, the dissociation constant (Kd) in data set [5] (ka printed 2.8E+05 1/Ms, kd 8.9E-4 1/s (ratio inconsistent with the printed KD)) was 0.3 nM.

The term Kd denotes the constant that tells how readily two partners part at equilibrium.
